We go through three compounds from paper PMC10209884, “Hypochlorite-induced oxidation promotes aggregation and reduces toxicity of amyloid beta 1-42” (Redox Biology, 2023).

For data set [1], the system named is cortical neurons. To be noted: in vitro, cortical neurons from rodents; cited from earlier work. The text has this: The exact concentration of hypochlorite generated in cerebral spinal fluid is not known, but myeloperoxidase has been measured in human cerebrospinal fluid (CSF) from cognitively normal donors at 101 ± 43 pg/ml with corresponding activity of 0.0292 ± 0.001 mU [34]. Although myeloperoxidase activity is much less in CSF than in human serum, human serum also contains high levels of albumin which acts as an antioxidant. […] Considering that 3-chl ...

The nature of data set [2]: Transmission electron microscopy of ThT assay end-point samples. To be noted: end-point samples of ThT assay after NaOCl pre-treatment; 2% uranyl acetate stain. It is filed as physicochemical. As for the experimental part: Samples from the ThT kinetics assay (endpoints) were prepared for TEM on 400-mesh carbon film coated copper grids (EM resolutions Ltd.) and stained with 2% (w/v) uranyl acetate. Grids were imaged with a FEI Tecnai G2 transmission electron microscope (Cambridge Advanced Imaging Centre, University of Cambridge) and subsequent images analyzed with SIS Megaview II Image Capture system (Olympus).

The nature of data set [3]: Thioflavin T (ThT) assay of amyloid fibril formation. It is filed as physicochemical. As for the experimental part:
Aβ1–42 (4–5 μM) was incubated at 28 °C with shaking in PBS ± NaOCl containing ThT (20–25 μM). The ThT fluorescence of the samples was continuously monitored using a Clariostar platereader with excitation and emission wavelengths of 440 nm and 480 nm (slit widths of 10 nm), respectively. The data shown is the mean fluorescence of triplicate samples and is adjusted for the background fluorescence. In additional experiments, Aβ1–42 was pre-treated with NaOCl in PBS for 1 h at ambient room temperature before being supplemented with excess L-Met (20 mM). A control sample of Aβ1–42 was incubated in the absence of NaOCl as described previously and supplemented with L-Met. Aβ1–42 preparations were then subjected to a ThT assay incubated at 37 °C under quiescent conditions, and monitored as described above. Half-time (t1/2) values are the time to reach half of the maximum ThT fluorescence, calculated after normalising the aggregation data for 3 independent assays.

Data set [4] has as its system SH-SY5Y neuroblastoma cells. Briefly: Incucyte Cytotox Green cell death assay. Particulars: Aβ1-42 (100 μM) pre-incubated with 80 μM NaOCl in Ham's/F12 2 h ambient room temperature; 15 μM Aβ1-42 on cells; vs Aβ1-42 without NaOCl. The format is cell-based, human. As for the experimental part: Cell viability was also measured in real-time using Cytotox Green reagent (Essen Bioscience) in an Incucyte SX5 (Sartorius, South VIC, AUS), according to the manufacturer's instructions.

Data set [5] is described as follows: Size exclusion chromatography of Aβ1-42 assemblies. It is filed as physicochemical. To be noted: 66.67 μM Aβ1-42, PBS, 1 h ambient room temperature. The text has this:
The absorbance at 280 nm was used to monitor the elution of the peptide.
(In gel filtration, larger molecules generally elute earlier.)

Data set [6] can be described thus: BisANS assay of surface exposed hydrophobicity. To be noted: NaOCl at sub-stoichiometric concentration vs Aβ1-42 in PBS alone, overnight, ambient room temperature, 10 μM Aβ1-42, 20 μM bisANS, 5 min, 25 °C, Ex 360 nm, Em 502 nm, mean of n = 10. The format is physicochemical. On the procedure:
(§1) When incubations differed from these standard conditions for a specific experiment, the details are provided in the relevant figure legend and in the relevant section of the Methods section.
Aβ1-42 was treated with NaOCl and the solutions supplemented with excess L-Met. […] BisANS fluorescence (Excitation 360 nm, Emission 502 nm) was then measured using a Clariostar platereader (BMG Labtech). The data shown is the average BisANS fluorescence of n = 10 samples and is adjusted for background fluorescence.

Data set [7] in a line: Electrospray mass spectrometry of Aβ1-42 oxidation by NaOCl. It is filed as physicochemical. To be noted: 5-fold molar excess of NaOCl; 31 μM Aβ1-42, PBS, 1 h on ice/4 °C, quenched with 20 mM L-Met; electrospray MS. As for the experimental part:
Aβ1–42 (31 μM) was incubated with NaOCl (0–360 μM) in PBS on ice for 1 h and the reaction was quenched using L-Met (20 mM). Electrospray mass spectrometry was performed on a Xevo G2 mass spectrometer and data was analyzed using MassLynx software (Waters UK, Elstree, Hertfordshire, UK) at the Department of Chemistry, University of Cambridge.

The subject of data set [8] is SH-SY5Y cells. The experiment in a line: Incucyte endocytosis assay (colocalization with Lysotracker Red). It is filed as cell-based, human. To be noted: Aβ1-42-Hilyte-488 (50 μM) pre-treated with 160 μM NaOCl, compared to copper/H2O2 treatment, Ham's F12, 4 °C, 4 days; 1 μM on cells, 1 h; n = 27 areas from three wells. On the procedure: Images of the cells were taken after 1 h using an Incucyte SX5 (Sartorius).
Aβ1-42-Hilyte-488 (50 μM) was incubated with 160 μM NaOCl or […]/H2O2 in Ham's/F12 or Ham's/F12 alone for 4 days at 4 °C. SH-SY5Y cells seeded at 15,000 cells/well in a 96-well plate were then treated with 1 μM of Aβ1-42-Hilyte-488 in NB27 containing 100 nM Lysotracker Red DND-99. Images of cells (9 images per well) were taken after 1 h using an Incucyte SX5 (Sartorius). Colocalization of Aβ1-42-Hilyte-488 with Lysotracker Red was calculated using Incucyte live cell analysis software.

Data set [9] in a line: Western blot analysis of SDS-resistant Aβ1-42 assemblies. It is filed as physicochemical. Particulars: higher concentrations of NaOCl, PBS overnight at ambient room temperature; 10-20% tris-tricine gel, WO2 Western blot. As for the experimental part: as §1
Gels were stained using Instant Blue stain (Abcam; Melbourne, VIC, AUS) and imaged with Geldoc Go imager (Bio-Rad, NSW, AUS).
Blots were imaged after exposure to enhanced chemiluminescence reagent (Bio-Rad, NSW, AUS) using a ChemiDoc MP Imaging system (Bio-Rad, NSW, AUS).
On the technique in general: A western blot detects proteins with antibodies after separation by electrophoresis.

Data set [10] can be described thus: Filter trap assay (insoluble Aβ1-42 retained on cellulose acetate membrane). It is filed as physicochemical. To be noted: co-incubation with 1.6-fold molar excess of NaOCl vs Aβ1-42 in PBS alone; Aβ1-42 55 μM, PBS pH 7.4, overnight, ambient room temperature; 0.22 μm cellulose acetate membrane, WO2 blot densitometry; mean of n = 3. As for the experimental part: as §1
Following treatment with NaOCl, Aβ1-42 samples were subjected to filter trap assay in order to estimate the amount of peptide present in the insoluble fraction. […] Following extraction of the soluble fraction using a vacuum, the wells of the apparatus were washed three times using 0.01% (v/v) Triton-X in PBS. […] Blots were imaged after exposure to enhanced chemiluminescence reagent (Bio-Rad, NSW, AUS) using a ChemiDoc MP Imaging system (Bio-Rad, NSW, AUS).

Bounds are passed on as bounds.

`[Na+].[O-]Cl` [hypochlorite, sodium hypochlorite]: the “hypochlorite concentration at which neurons are resistant to cell death” value in data set [1] is reported as “up to 200 μM”.
Consider amyloid beta peptide 1–42 [Aβ1-42], for which, in [2], the “formation of amyloid fibrils by TEM” value is on record as “markedly reduced”. Moreover, the “amyloid-associated ThT fluorescence over a 7-hr time course” value in data set [3] (co-incubation with 2-fold molar excess of NaOCl, 5 μM Aβ1-42, 25 μM ThT, PBS, 28 °C, orbital shaking, mean of n = 4) is given as “significantly suppress”. Further, the “increase in amyloid-associated ThT fluorescence (half-time t1/2)” value in data set [3] (pre-treatment with 1.6-fold molar excess of NaOCl in PBS 1 h RT, quenched with excess L-Met, 4 μM Aβ1-42, 25 μM ThT, 37 °C, mean of n = 3) is on record as “significantly delayed”. Moreover, the “amyloid-associated ThT fluorescence over the 15 h of the assay” value in [3] (pre-treatment with 3.2-fold molar excess of NaOCl in PBS 1 h RT, quenched with excess L-Met, 4 μM Aβ1-42, 25 μM ThT, 37 °C, mean of n = 3) is “prevented”. Besides, the “cell death after 72 h (green object count)” value in [4] is reported as “approximately halved”. In [5] (no NaOCl, Superdex 75 Increase 3.2/300, 0.05 ml/min, A280), the “SEC apparent size of the majority of the peptide (monomer)” value is given as 4.5 kDa. The “BisANS fluorescence (surface exposed hydrophobicity)” value in [6] is “substantial decrease”. The “fraction of the peptide oxidised (singly oxidised species, 4530 Da)” value in data set [7] is listed as “around half”.
In the case of “NaOCl-treated Aβ1-42: Aβ1-42 pre-incubated with sodium hypochlorite; singly oxidised species in heterogeneous assemblies”, the “internalisation to lysosomes (colocalization area of Aβ1-42-Hilyte-488 and Lysotracker Red)” value in data set [8] is “preferentially internalise”. For the same compound, the “size of higher order SDS-resistant Aβ1-42 assemblies” value in data set [9] is about 150 kDa. In addition, in data set [5] (2-fold molar excess of NaOCl (133.33 μM), Superdex 75 Increase 3.2/300, A280, ≥100 kDa = exclusion limit), the “SEC approximate molecular masses of predominate peaks” value is given as at least 100 kDa. The “reduction in insoluble Aβ1-42 detected by filter trap assay” value in data set [10] was 95%.
